B1: Apoptosis-stimulating of p53 protein 2 (Homo sapiens), Q13625 (parent)
chain: MMPMFLTVYLSNNEQHFTEVPVTPETICRDVVDLCKEPGESDCHLAEVWCGSERPVADNERMFDVLQRFGSQRNEVRFFLRHERPPGRDIVSGPRSQDPSLKRNGVKVPGEYRRKENGVNSPRMDLTLAELQEMASRQQQQIEAQQQLLATKEQRLKFLKQQDQRQQQQVAEQEKLKRLKEIAENQEAKLKKVRALKGHVEQKRLSNGKLVEEIEQMNNLFQQKQRELVLAVSKVEELTRQLEMLKNGRIDSHHDNQSAVAELDRLYKELQLRNKLNQEQNAKLQQQRECLNKRNSEVAVMDKRVNELRDRLWKKKAALQQKENLPVSSDGNLPQQAASAPSRVAAVGPYIQSSTMPRMPSRPELLVKPALPDGSLVIQASEGPMKIQTLPNMRSGAASQTKGSKIHPVGPDWSPSNADLFPSQGSASVPQSTGNALDQVDDGEVPLREKEKKVRPFSMFDAVDQSNAPPSFGTLRKNQSSEDILRDAQVANKNVAKVPPPVPTKPKQINLPYFGQTNQPPSDIKPDGSSQQLSTVVPSMGTKPKPAGQQPRVLLSPSIPSVGQDQTLSPGSKQESPPAAAVRPFTPQPSKDTLLPPFRKPQTVAASSIYSMYTQQQAPGKNFQQAVQSALTKTHTRGPHFSSVYGKPVIAAAQNQQQHPENIYSNSQGKPGSPEPETEPVSSVQENHENERIPRPLSPTKLLPFLSNPYRNQSDADLEALRKKLSNAPRPLKKRSSITEPEGPNGPNIQKLLYQRTTIAAMETISVPSYPSKSASVTASSESPVEIQNPYLHVEPEKEVVSLVPESLSPEDVGNASTENSDMPAPSPGLDYEPEGVPDNSPNLQNNPEEPNPEAPHVLDVYLEEYPPYPPPPYPSGEPEGPGEDSVSMRPPEITGQVSLPPGKRTNLRKTGSERIAHGMRVKFNPLALLLDSSLEGEFDLVQRIIYEVDDPSLPNDEGITALHNAVCAGHTEIVKFLVQFGVNVNAADSDGWTPLHCAASCNNVQVCKFLVESGAAVFAMTYSDMQTAADKCEEMEEGYTQCSQFLYGVQEKMGIMNKGVIYALWDYEPQNDDELPMKEGDCMTIIHREDEDEIEWWWARLNDKEGYVPRNLLGLYPRIKPRQRSLA

Variants of: B1
Conditions: with apcl_human APC2, O95996
Chain of apcl_human APC2, O95996 (O95996 whole entry): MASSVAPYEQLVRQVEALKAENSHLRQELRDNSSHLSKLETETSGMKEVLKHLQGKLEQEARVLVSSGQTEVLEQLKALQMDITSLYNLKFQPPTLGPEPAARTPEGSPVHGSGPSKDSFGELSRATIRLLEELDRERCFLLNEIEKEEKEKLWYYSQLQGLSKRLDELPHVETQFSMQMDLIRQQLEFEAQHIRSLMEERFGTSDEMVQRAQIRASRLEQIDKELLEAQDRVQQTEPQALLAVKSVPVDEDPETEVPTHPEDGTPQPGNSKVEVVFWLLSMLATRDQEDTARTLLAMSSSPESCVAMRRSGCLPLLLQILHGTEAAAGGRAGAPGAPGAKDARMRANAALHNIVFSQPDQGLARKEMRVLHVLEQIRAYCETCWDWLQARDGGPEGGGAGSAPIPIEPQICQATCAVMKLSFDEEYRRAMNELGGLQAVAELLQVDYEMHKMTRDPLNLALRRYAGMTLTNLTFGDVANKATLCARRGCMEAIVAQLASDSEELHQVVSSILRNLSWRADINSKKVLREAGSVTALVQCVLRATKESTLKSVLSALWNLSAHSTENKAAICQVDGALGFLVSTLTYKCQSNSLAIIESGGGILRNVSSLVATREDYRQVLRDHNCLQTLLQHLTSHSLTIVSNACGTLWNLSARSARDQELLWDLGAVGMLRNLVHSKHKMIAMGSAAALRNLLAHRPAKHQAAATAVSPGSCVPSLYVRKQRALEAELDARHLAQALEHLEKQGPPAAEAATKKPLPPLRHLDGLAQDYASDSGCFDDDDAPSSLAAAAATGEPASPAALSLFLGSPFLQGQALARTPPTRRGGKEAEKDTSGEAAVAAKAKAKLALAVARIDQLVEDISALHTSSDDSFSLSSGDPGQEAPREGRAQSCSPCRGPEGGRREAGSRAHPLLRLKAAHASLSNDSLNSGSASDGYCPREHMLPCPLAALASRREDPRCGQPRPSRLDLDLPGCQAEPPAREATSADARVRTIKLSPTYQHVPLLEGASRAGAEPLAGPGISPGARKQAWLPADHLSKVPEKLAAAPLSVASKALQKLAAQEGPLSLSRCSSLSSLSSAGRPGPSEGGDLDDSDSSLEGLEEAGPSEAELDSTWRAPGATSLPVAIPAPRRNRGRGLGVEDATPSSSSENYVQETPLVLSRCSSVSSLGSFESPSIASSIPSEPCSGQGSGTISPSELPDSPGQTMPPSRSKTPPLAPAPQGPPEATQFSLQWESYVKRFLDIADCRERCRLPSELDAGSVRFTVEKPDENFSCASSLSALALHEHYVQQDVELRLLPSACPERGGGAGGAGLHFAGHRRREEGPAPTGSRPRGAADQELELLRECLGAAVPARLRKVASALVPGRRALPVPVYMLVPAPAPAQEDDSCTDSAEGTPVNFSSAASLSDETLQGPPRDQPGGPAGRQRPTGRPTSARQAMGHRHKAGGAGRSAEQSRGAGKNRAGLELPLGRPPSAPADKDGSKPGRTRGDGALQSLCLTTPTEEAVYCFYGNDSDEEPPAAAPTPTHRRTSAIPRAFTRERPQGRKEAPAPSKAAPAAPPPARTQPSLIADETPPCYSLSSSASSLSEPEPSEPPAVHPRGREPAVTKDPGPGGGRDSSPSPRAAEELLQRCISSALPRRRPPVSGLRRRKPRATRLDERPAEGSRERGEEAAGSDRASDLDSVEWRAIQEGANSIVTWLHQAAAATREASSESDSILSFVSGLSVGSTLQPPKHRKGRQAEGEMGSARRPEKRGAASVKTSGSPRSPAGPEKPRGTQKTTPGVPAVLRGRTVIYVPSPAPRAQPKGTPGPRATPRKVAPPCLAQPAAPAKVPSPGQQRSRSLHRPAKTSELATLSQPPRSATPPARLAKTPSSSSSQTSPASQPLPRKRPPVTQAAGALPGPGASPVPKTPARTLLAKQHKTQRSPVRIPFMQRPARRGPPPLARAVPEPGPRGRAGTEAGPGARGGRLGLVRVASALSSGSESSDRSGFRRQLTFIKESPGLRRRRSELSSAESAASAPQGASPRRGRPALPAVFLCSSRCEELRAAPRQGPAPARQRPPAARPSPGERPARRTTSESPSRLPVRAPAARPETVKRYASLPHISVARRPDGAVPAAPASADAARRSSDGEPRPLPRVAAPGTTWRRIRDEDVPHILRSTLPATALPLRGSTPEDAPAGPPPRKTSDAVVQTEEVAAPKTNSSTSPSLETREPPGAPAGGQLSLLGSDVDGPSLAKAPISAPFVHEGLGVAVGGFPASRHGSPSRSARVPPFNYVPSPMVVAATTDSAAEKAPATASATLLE

| effect of a mutation on the interaction | Variant |
| --- | --- |
| disrupting interaction strength | W1098K |
